# According to the RNAGym collection of RNA variant scans (doi:10.1093/molbev/msab373):
# B1: Azoarcus group I ribozyme (parent)
# chain: GUGCCUUGCGCCGGGAAACCACGCAAGGGAUGGUGUCAAAUUCGGCGAAACCUAAGCGCCCGCCCGGGCGUAUGGCAACGCCGAGCCAAGCUUCGGCGCCUGCGCCGAUGAAGGUGUAGAGACUAGACGGCACCCACCUAAGGCAAACGCUAUGGUGAAGGCAUAGUCCAGGGAGUGGCGAAAGUCACACAAACCGG
# Variants of: B1
# Assay: reverse-splicing fitness (ratio to wild type); higher = more active; in vitro selection; Mg2+ level not given
# Summary of the method: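 An in vitro group I ribozyme library with randomized positions was T7-transcribed and gel-purified. In triplicate, 10 pmol RNA in EPPS pH 7.5 was reacted with 50 pmoles of a 30-nt RNA substrate for 1 h at 37 °C across several added MgCl2 levels (1–48 mM), then stopped with EDTA. Products were reverse transcribed from a substrate-complementary primer, PCR-amplified and sequenced (HiSeq 4000). Fitness is a variant's read proportion after selection over that before, normalised to wild type.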
row,Variant,reverse-splicing fitness
1,GUGCCUUGCGCCGGGAAACCACGCAAGGGAUGGUGUCAAAUUCGGCGAAACCUAAGCGCCCGCCCGGGCGUAUGGCAACGCUGAGCCAAGCUUCGGCGCCUGCGCCGAUGUAGGUGUAGAGACUAGACGGCACCCACCUAAGGCUAACGAUAUGGUGAAGGCAUAGUCGAGGGAGUGGCGAAAGUCACACAAACCGG [C82U A111U A145U C150A C169G],0.00727
2,GUGCCUUGCGCCGGGAAACCACGCAAGGGAUGGUGUCAAAUUCGGCGAAACCUAAGCGCCCGCCCGGGCGUAUGGCAACGCUGAGCCAAGCUUCGGCGCCUGCGCCGAUGUAGGUGUAGAGACUAGACGGCACCCACCUAAGGCUAACGAUAUGGUGAAGGCAUAGUCAAGGGAGUGGCGAAAGUCACACAAACCGG [C82U A111U A145U C150A C169A],0.0089
3,GUGCCUUGCGCCGGGAAACCACGCAAGGGAUGGUGUCAAAUUCGGCGAAACCUAAGCGCCCGCCCGGGCGUAUGGCAACGCUGAGCCAAGCUUCGGCGCCUGCGCCGAUGUAGGUGUAGAGACUAGACGGCACCCACCUAAGGCUAACGAUAUGGUGAAGGCAUAGUCUAGGGAGUGGCGAAAGUCACACAAACCGG [C82U A111U A145U C150A C169U],0.0106
4,GUGCCUUGCGCCGGGAAACCACGCAAGGGAUGGUGUCAAAUUCGGCGAAACCUAAGCGCCCGCCCGGGCGUAUGGCAACGCUGAGCCAAGCUUCGGCGCCUGCGCCGAUGUAGGUGUAGAGACUAGACGGCACCCACCUAAGGCGAACGCUAUGGUGAAGGCAUAGUCCAGGGAGGGGCGAAAGUCACACAAACCGG [C82U A111U A145G U176G],0.0229
5,GUGCCUUGCGCCGGGAAACCACGCAAGGGAUGGUGUCAAAUUCGGCGAAACCUAAGCGCCCGCCCGGGCGUAUGGCAACGCUGAGCCAAGCUUCGGCGCCUGCGCCGAUGUAGGUGUAGAGACUAGACGGCACCCACCUAAGGCGAACGCUAUGGUGAAGGCAUAGUCCAGGGAGAGGCGAAAGUCACACAAACCGG [C82U A111U A145G U176A],0.107
6,GUGCCUUGCGCCGGGAAACCACGCAAGGGAUGGUGUCAAAUUCGGCGAAACCUAAGCGCCCGCCCGGGCGUAUGGCAACGCUGAGCCAAGCUUCGGCGCCUGCGCCGAUGUAGGUGUAGAGACUAGACGGCACCCACCUAAGGCGAACGCUAUGGUGAAGGCAUAGUCCAGGGAGCGGCGAAAGUCACACAAACCGG [C82U A111U A145G U176C],0.159
7,GUGCCUUGCGCCGGGAAACCACGCAAGGGAUGGUGUCAAAUUCGGCGAAACCUAAGCGCCCGCCCGGGCGUAUGGCAACGCUGAGCCAAGCUUCGGCGCCUGCGCCGAUGUAGGUGUAGAGACUAGACGGCACCCACCUAAGGCGAACGUUAUGGUGAAGGCAUAGUCCAGGGAGCGGCGAAAGUCACACAAACCGG [C82U A111U A145G C150U U176C],0.12
8,GUGCCUUGCGCCGGGAAACCACGCAAGGGAUGGUGUCAAAUUCGGCGAAACCUAAGCGCCCGCCCGGGCGUAUGGCAACGCUGAGCCAAGCUUCGGCGCCUGCGCCGAUGUAGGUGUAGAGACUAGACGGCACCCACCUAAGGCGAACGUUAUGGUGAAGGCAUAGUCCAGGGAGGGGCGAAAGUCACACAAACCGG [C82U A111U A145G C150U U176G],0.0188
9,GUGCCUUGCGCCGGGAAACCACGCAAGGGAUGGUGUCAAAUUCGGCGAAACCUAAGCGCCCGCCCGGGCGUAUGGCAACGCUGAGCCAAGCUUCGGCGCCUGCGCCGAUGUAGGUGUAGAGACUAGACGGCACCCACCUAAGGCGAACGUUAUGGUGAAGGCAUAGUCCAGGGAGAGGCGAAAGUCACACAAACCGG [C82U A111U A145G C150U U176A],0.0765
10,GUGCCUUGCGCCGGGAAACCACGCAAGGGAUGGUGUCAAAUUCGGCGAAACCUAAGCGCCCGCCCGGGCGUAUGGCAACGCUGAGCCAAGCUUCGGCGCCUGCGCCGAUGUAGGUGUAGAGACUAGACGGCACCCACCUAAGGCUAACGCUAUGGUGAAGGCAUAGUCCAGGGAGUGGCGAAAGUCACACAAACCGG [C82U A111U A145U],0.329
11,GUGCCUUGCGCCGGGAAACCACGCAAGGGAUGGUGUCAAAUUCGGCGAAACCUAAGCGCCCGCCCGGGCGUAUGGCAACGCUGAGCCAAGCUUCGGCGCCUGCGCCGAUGUAGGUGUAGAGACUAGACGGCACCCACCUAAGGCGAACGCUAUGGUGAAGGCAUAGUCGAGGGAGAGGCGAAAGUCACACAAACCGG [C82U A111U A145G C169G U176A],0.0207
12,GUGCCUUGCGCCGGGAAACCACGCAAGGGAUGGUGUCAAAUUCGGCGAAACCUAAGCGCCCGCCCGGGCGUAUGGCAACGCUGAGCCAAGCUUCGGCGCCUGCGCCGAUGUAGGUGUAGAGACUAGACGGCACCCACCUAAGGCGAACGCUAUGGUGAAGGCAUAGUCGAGGGAGGGGCGAAAGUCACACAAACCGG [C82U A111U A145G C169G U176G],0.00528
13,GUGCCUUGCGCCGGGAAACCACGCAAGGGAUGGUGUCAAAUUCGGCGAAACCUAAGCGCCCGCCCGGGCGUAUGGCAACGCUGAGCCAAGCUUCGGCGCCUGCGCCGAUGUAGGUGUAGAGACUAGACGGCACCCACCUAAGGCGAACGCUAUGGUGAAGGCAUAGUCGAGGGAGCGGCGAAAGUCACACAAACCGG [C82U A111U A145G C169G U176C],0.027
14,GUGCCUUGCGCCGGGAAACCACGCAAGGGAUGGUGUCAAAUUCGGCGAAACCUAAGCGCCCGCCCGGGCGUAUGGCAACGCUGAGCCAAGCUUCGGCGCCUGCGCCGAUGUAGGUGUAGAGACUAGACGGCACCCACCUAAGGCGAACGCUAUGGUGAAGGCAUAGUCUAGGGAGAGGCGAAAGUCACACAAACCGG [C82U A111U A145G C169U U176A],0.0135
15,GUGCCUUGCGCCGGGAAACCACGCAAGGGAUGGUGUCAAAUUCGGCGAAACCUAAGCGCCCGCCCGGGCGUAUGGCAACGCUGAGCCAAGCUUCGGCGCCUGCGCCGAUGUAGGUGUAGAGACUAGACGGCACCCACCUAAGGCGAACGCUAUGGUGAAGGCAUAGUCUAGGGAGGGGCGAAAGUCACACAAACCGG [C82U A111U A145G C169U U176G],0.0055
